Data from the DeepSol protein solubility set.

experiment: soluble on expression in E. coli; label from the status in PepcDB or PDB records

Row | Sequence | soluble on expression in E. coli
1 | LNAAMNLKREFVHRVQRFVVNPIGRQLPMTMLETIGRKTGQPRRTAVGGRVVDNQFWMVSEHGEHSDYVYNIKANPAVRVRIGGRWRSGTAYLLPDDDPRQRLRGLPRLNSAGVRAMGTDLLTIRVDLD | soluble
2 | MGSDKIHHHHHHMTTLKARLRQGQAITMIGNSLPDTYAAEMVASAGFDAVMIDLQHSAIGLHEVNDLARAVRAQGCAPVVRVAANDPAAITKVLDGGVDAVVAPMINSAEACRQFISACYYAPLGDRSFGPYLGQVIQRQSIQDYYAQTRDRLLPIAMIENEEGVRQAEQIMRTEGLGAIYVGASDLSIAMGMDCVPDYRNARLLDCIKGLIDLGERCGIPVGAFAPTLEDSLMLQSLGSRILWVGSDQGFIKAGCAARAQQYHAESSPRR | not soluble
3 | MTNTGETKVIESHGTIKKIDSLSTMPYCGVETDENAVVEEKITLESGKSWSPKHYELLHERIERLIDEKQQFFSLEFFPPRFVNGVPNFLERVERLSEGGSVFVDMTWHMGSDPANVDKVTSSSSIAASMLDYCGVDTMLHMTCVQYNKADTLKHLEQAKAMGLRSILALRGDLPPGTELEDTHQFRALDMIRWIREEYGNYFSIGCAGYPLGHPQAPSYKADLMYLKAKCDAGANFVITQLFFEAETFEKFVRDCREIGITQPIIPGIMPIMGYESIKRIAKLSQLEIPQHILDDLEPIKHDDDAVQKYGTERCIEMCRRLLDNGTAPSIHLYTMNREGSIREILKSLGLWKLEGDRVFPWKNRSQHPIRCLESVRPIYWSFRPRSYITRTRDWDQFPNGRWGNSSSPAFGDVSSYYLSNLTTVRNADDRLAMFGANIESFEDVKRVFINYITQAPNADGVKVTVLPWTEAETGVQPETSLISEQLVWCNENGILTVNSQPSVNGAPSTDPLVGWGKPGGYCYQKAYLECFMTAELSDKLIQIIEREFPVRVNYHAINKDSTFDKTNSEETTPIAVTWGVFPGSEIAQPTVVDPLSFRAWRDEAYQMWMAQWGDFYPKESKSYGVIKAVHDEFRLVTLVDNDFQKPSVLFDVLQKALDELKK | not soluble
4 | MSLKQISIRDVAALAGVSVGSASRVINGAANVTPDVRERVDRAIAALRYRPNHAAQSLRSRTSKTIGCMFSDVANPLYARAFRALEEHFRREGYMLLLANGLNDAEREIDIIQTFQLRGMDGVILAPGNERHPGVLDAVRRLSMPAVIYDRDLAVDADAVLFDHVAGVKAAIHHLVELGHTRIALALWQVKSRPVRRRIEGYKAAFKAAGLPVPDLILQEPTPTSSAFDDVTRLLQLPDPPTAFLAQGTHTLTSTLRAIAKQGLRVPEDVSVIGIGDTDFAQTYDPPLTVLRTPTDEVAAHAVEMLLSRLAAKGDASLSPRKALIQFDLILRESCAPVAREGHHHHHH | not soluble
5 | MKFNKSTMEANGDTSACNGYSDKQRKDVRVWCDGCYDMVHFGHANSLRQAKALGDKVIVGIHTDEEITKHKGPPVFTEEERVKMVKGIKWVDEVVLGAPYVTTLDVLDQNNCDFCVHGDDITMTAEGVDTYHLVKSANRYKEVKRTAGVSTTD | not soluble
6 | MAEAASCARKGTKYAEGTQPFTVLIEGNIGSGKTTYLNHFEKYKNDICLLTEPVEKWRNVNGVNLLELMYKDPKKWAMPFQSYVTLTMLQSHTAPTNKKLKIMERSIFSARYCFVENMRRNGSLEQGMYNTLEEWYKFIEESIHVQADLIIYLRTSPEVAYERIRQRARSEESCVPLKYLQELHELHEDWLIHQRRPQSCKVLVLDADLNLENIGTEYQRSESSIFDAISSNQQPSPVLVSPSKRQRVAR | soluble
7 | MGSDKIHHHHHHMTQFDVLTIGNAIVDIISRCEDQFLEENGIVKGAMNLIDAERATRLYSLMGPAIEASGGSAGNTAAGIASFGGKAAYFGKVAEDELGEIFAHDIRAQGVHYQTMAKGQHPPTARCMIFVTEDGERSMNTYLGACVEFGPEDVEPEVVKQAKVTYFEGYLWDPPRAKQAIVDCARIAHEHGREMSMTLSDSFCVHRYRAEFLDLMRSGTVDIVFANRQEALALYETEDFDAALDQIAKDCKLAAVTMSEEGAMIIRGSERIHVPATTIAELVDTTGAGDLFASGFLYGYTQGRTLEECGKLGCLAAGLVIQQMGPRPLASLQEAAAEAGLI | not soluble
8 | MDICSRNKKLTIRRPAILVALALLLCSCKSTPPESMVTPPAGSKPPATTQQSSQPMRGIWLATVSRLDWPPVSSVNISNPTSRARVQQQAMIDKLDHLQRLGINTVFFQVKPDGTALWPSKILPWSDLMTGKIGENPGYDPLQFMLDEAHKRGMKVHAWFNPYRVSVNTKPGTIRELNSTLSQQPASVYVQHRDWIRTSGDRFVLDPGIPEVQDWITSIVAEVVSRYPVDGVQFDDYFYTESPGSRLNDNETYRKYGGAFASKADWRRNNTQQLIAKVSHTIKSIKPGVEFGVSPAGVWRNRSHDPLGSDTRGAAAYDESYADTRRWVEQGLLDYIAPQIYWPFSRSAARYDVLAKWWADVVKPTRTRLYIGIAFYKVGEPSKIEPDWMINGGVPELKKQLDLNDAVPEISGTILFREDYLNKPQTQQAVSYLQSRWGS | soluble
9 | MMEGLDDGPDFLSEEDRGLKAINVDLQSDAALQVDISDALSERDRVNFTVHTKSSLPNFKQNEFSVVRQHEEFIWLHDSFVENEDYAGYIIPPAPPRPDFDASREKLQKLGEGEGSMTKEEFTKMKQELEAEYLAIFKKTVAMHEVFLCRVAAHPILRKDLNFHVFLEYNQDLSVRGKNKKEKLEDFFKNMVKSADGVIVSGVKDVDDFFEHERTFLLEYHNRVKDASAKSDRMTRSHKSAADDYNRIGSSLYALGTQDSTDICKFFLKVSELFDKTRKIEARVSADEDLKLSDLLKYYLRESQAAKDLLYRRSRSLVDYENANKALDKARAKNKDVLQAETSQQLCCQKFEKISESAKQELIDFKTRRVAAFRKNLVELAELELKHAKGNLQLLQNCLAVLNGDT | soluble
10 | MDSEAVSSDSHVAAAIATRRRSNSVSDDYSVQRTNDDATQCKYFATQKGYWKDEFISRFANSSSNVSEARRFPEISMGYWARTAAIEKYVRDFLNEFDGNAQVVSLGCGFDTLFWRLVSSGAKLVKYVEVDFSSVTSKKIRHILKPIGPNSVDLKKSFESDAVVSHHADLHAGNYHLIGADLRQANELDQKLATCQLSHDIPTIFIAECVLVYMSADSSTALLKQIVSQFKQPAFVNYEQFRTSDAFTKVMEQNLGDRGIQLHGLEMCESAEKQEERFRNAGFKEVKVMDMNQIFNNFLDQKEVSRIREIEMLDEMELLQQLFAHYCVVSARI | not soluble
11 | MFIGGAIISFLFLFGYMWKEAHSNRIRHVTLSFPHFPDNGPPLTIFFISDIHRRSVSCRMLETVKGKADLVVIGGDLAEKGVPAARVRENVRRLQTVAPVYFVWGNNDDEVDYDLQSLLEEERVYVLKNKAEVWEHGGVPIALIGVGDVSRKEADIARALEHVPPESFRILACHNPAIIARLEDEQHISLVLSGHTHGGQIRLFSFGLYEKGGLKWHGNTALFTSNGYGTTGVPLRLGAPAETHLIKIVPGKLATEKKCLSKTGKTMLEHHHHHH | not soluble
12 | MAAFNAKYLIDLLKRIRSGEESIDSPDALELLYIPLPLAHELGVINSMDGLDPYDEMEISCKSILKKLDEKKKTEEKHRAKQERQAQKKGAKEQAKKEKAELKKEAKELLKKEKAEERKKESLKRKLSEKSEPAAKKAKASEDQENRGATKKKITPPNRKHTALFKKCMAMRVKNFAY | not soluble
13 | MGSDKIHHHHHHMKNYALLNGAYDNKTMYDFKPVRADNTYLYDSQNRKYLDLRSGLWNTSLGYIDSLYQRVSKRFDQVLNKKLPYLDIHSFQHDIYDEVAQKVLELTGHAFKRVLYTNSGSENTELALKIADYTNKKGENNRILAFKDSYHGTFFGGVSVSGIDQEINSSFYPKYGEVTFIDYPKSAEQEKNVLDYIANVASFYDVMMIEPILASAGIYFASTDFFNALLKLLRKNQVLIVFDEVATGFFKTGKPFYFQQLSEKPDILCLSKAINNGITSFGCVCVNEEVDAKLQKNPKTMEHFSTQNGNLLGLESANIVLDYYLKSRDVIKGKVKDISDSISNVLDSQNVFYRNQGIMTAIRTESNQSLQLMKSLEKLGILTYLYVNEEEEGLSIMPPININLNVLEKALKLISKKIESQNSF | not soluble
14 | MLKCVMSGSQVKVFGKAVQALSRISDEFWLDPSKKGLALRCVNSSRSAYGCVLFSPVFFQHYQWSALVKMSENELDTTLHLKCKLGMKSILPIFRCLNSLERNIEKCRIFTRSDKCKVVIQFFYRHGIKRTHNICFQESQPLQVIFDKNVCTNTLMIQPRLLADAIVLFTSSQEEVTLAVTPLNFCLKSSNEESMDLSNAVHSEMFVGSDEFDFFQIGMDTEITFCFKELKGILTFSEATHAPISIYFDFPGKPLALSIDDMLVEANFILATLADEQSRASSPQSLCLSQKRKRSDLIEKKAGKNVTGQALECISKKAAPRRLYPKETLTNISALENCGSPAMKRVDGDVSEVSESSVSNTEEVPGSLCLRKFSCMFFGAVSSDQQEHFNHPFDSLARASDSEEDMNNGSFSIFLEHHHHHH | not soluble
15 | MGSDKIHHHHHHMGRYLERTEHISRFSQAHYFFSIDAPKSVKKEHILESVLNMAGSYVEYLGSGNKMETMEVAYYIGLNEFNASSIKHSIVKARENARGAKDSISSELWQSINTFYHSINLMDRATFNEMGIYEFSKNVLQNSSVIKGNIDNTLLHEEAWSIIHLGQHIERTTQVIRMIVTKINDINRIPKKEYYNMIELFENVNLLKSTEAYDMSKIFYREVPSVSHSLEFLTLNRNFPKSIVYNLRHIEHCLLRITNLSKHETNSLEFYASKLLCTVKYTSIQDIEKEPLAFYNDLLNKVAKLADMLETKYLQY | not soluble
16 | MGSDKIHHHHHHSCEKDPDLSKLDNNFTVYTNYDSKTNFNDFKTYCLPDSILLIGQGMKAEFWKDENAQEIIKQVADEMDTRGYTRVKVIKNANIGLQLSFTRQTTQIIGTGGWYGGGWYNGWWGPGYWGPYWNDWYYPYPVTYSYNTGTLIMEMVNLTDHPEDTSQKVKLPVIWHSYATGLLFENSKYNMQLTLDAVNQAFDQSPYIKKS | not soluble
17 | MAHHHHHHMLRRVLSRGPLPQSLSVGPTSKLTVNKGKLAKSRGVHVHFLTIAECAAAAGDASAPIPPGFTGKAGEVDFQTLWTTAQDPATAESVLRKSGRKAAGARRAAEKPAELVAGMGAHSTVRDYRLAVTAAVRKAKMCNAAWVSLHPPKQDVFTMTDPYHPPQRLKSHEMVEKTAIFAVTGAYQYDRLKSGTLASKDSAQTGRTRARRAESRAKPPAAPQPPMELVVASSNAQAVRAGEVIGHCVNEARNLGNLREDEGVPEFYAEWAKKYMIPEGIKVRKVLRGQQLEEAGLHLMYNVGRGSRYEPYLVVLEYIGNPRSSATTAIVGKGVTFDCGGLNIKPYTSMETMHSDMMGAATAFCTLKAIAKLQLPINVVAAVGLVENAIGPESYHPSSIITSLKGLTVEVLNTDAEGRLVLADVLTYVQKYAPLDKKPTRIIDLATLTGAIIVGLGSRRAGLFSPSAMLANSLMAAGTQCGEELWPMPIGDEHKDMMKGGIADLINAAPGRQAGSCTAAAFLSNFVEPEVQWAHLDIAGVADVGDKPKGYEPAGVTGFGVQLLVDFLRHNKP | not soluble
18 | SMQGPRTRARLGANEVLLVVGGFGSQQSPIDVVEKYDPKTQEWSFLPSITRKRRYVASVSLHDRIYVIGGYDGRSRLSSVECLDYTADEDGVWYSVAPMNVRRGLAGATTLGDMIYVSGGFDGSRRHTSMERYDPNIDQWSMLGDMQTAREGAGLVVASGVIYCLGGYDGLNILNSVEKYDPHTGHWTNVTPMATKRSGAGVALLNDHIYVVGGFDGTAHLSSVEAYNIRTDSWTTVTSMTTPRCYVGATVLRGRLYAIAGYDGNSLLSSIECYDPIIDSWEVVTSMGTQRCDAGVCVLRE | soluble
